Experimental findings from patent US20210145978A1, “ANTI-CD71 ACTIVATABLE ANTIBODY DRUG CONJUGATES AND METHODS OF USE THEREOF” (AbbVie Inc., priority 2017, published 2021) are described below.

The nature of data set [1]: Tolerability and stability of AADCs and ADC in cynomolgus monkeys (Example 10). It is filed as in vivo, cynomolgus monkey. The method, then:
In this study, cynomolgus monkeys were treated intravenously with the indicated AADC or ADC with the indicated dosage at days 1 and […]. Only one dose was tolerated for anti-CD71 TF02.13-3011-vc-MMAE AADC and only one dose was administered for anti-CD71-vc-MMAE E2 (i.e. having a DAR of ˜2) ADC. The stability of the activatable antibodies (i.e. total activatable antibody vs intact activatable antibody) in the samples obtained from each animals was performed as described in Example 9 using reverse phase LC/MS/MS)
The body weight loss was determined on the lowest measure weight following the 1st administered dose. The baseline neutrophil count was at least 1000 per μL.

A short description of data set [2]: Non-GLP pilot toxicity studies in cynomolgus monkeys. The class given is in vivo, cynomolgus monkey. The method, then: Terminal necropsies were performed on the test animals on day 29 (7 days after the last dose). Assessments during the study included clinical signs, body weight, food consumption, clinical pathology, anatomic pathology, TK, and immunogenicity.

The test system of data set [3] is cynomolgus CD71 on CHO cells. Nature of the data set: FACS binding to cells, Table 3B. Particulars: binding curves of FIG. 3D; read-out: CHO w/ Cynomolgus CD71 FACS EC50. An excerpt:
(§1) FIGS. 3C and 3D show in a FACS assay the exemplary results that anti-CD71 activatable antibodies of the present disclosure and anti-CD71 conjugated activatable antibodies of the present disclosure bind cells expressing human CD71 (FIG. 3C) and cynomolgus CD71 (FIG. 3D) with a higher dissociation constant and lower affinity than that of the corresponding protease-activated anti-CD71 activatable antibody or protease-activated anti-CD71 conjugated activatable antibody of the present disclosure.
(§2) In the exemplary study shown in FIGS. 3C and 3D, the binding of the antibodies of the present disclosure to the indicated cell lines were performed using a standard FACS labelling method. […] In addition, the binding affinity of the anti-CD71 activatable antibody (anti-CD71 TF02.13-2011 (Act)) and the E2 (i.e. having a DAR of ˜2) anti-CD71 conjugated activatable antibody (anti-CD71 TF02.13-2011-vcMMAE E2 (Act)) were also assayed following protease-activation that cleaved the cleavable moiety therein. Each test article was applied at the indicated concentrations and subsequently detected with an Alexa Fluor 647 labeled goat anti-human IgG secondary antibody.
Background: A flow cytometer gives signals particle by particle.

Data set [4] addresses T1, human CD71 on H292 cells (Homo sapiens, UniProt P02786).
T1 construct: endogenous in cells; host or cells: NCI-H292
The experiment in a line: FACS binding to cells, Table 3B. Particulars: binding curves of FIG. 3C.
Text: as §1, §2

Data set [5] has as its target T2, CD71 on NCI H292 cells (Homo sapiens, UniProt P02786).
T2 construct: endogenous in cells; host or cells: NCI-H292
Nature of the data set: FACS binding to NCI H292 cells, masking efficiency (Example 3). Particulars: relative to parental Ab 21.12. The protocol:
Binding of anti-CD71 activatable antibodies of the present disclosure to the NCI H292 (also referred to herein as H292) cell line was evaluated using FACS. Briefly, cells were labeled with huCD71 antibody or activatable antibody at a range of concentrations and subsequently detected with an Alexa Fluor 647 labeled goat anti-human IgG secondary antibody to determine a binding curve.

Setting [6] is: 0.6 mg/kg, q3wx2, non-GLP study.

Some results are limits rather than exact numbers.

T2 sequence (P02786 whole entry): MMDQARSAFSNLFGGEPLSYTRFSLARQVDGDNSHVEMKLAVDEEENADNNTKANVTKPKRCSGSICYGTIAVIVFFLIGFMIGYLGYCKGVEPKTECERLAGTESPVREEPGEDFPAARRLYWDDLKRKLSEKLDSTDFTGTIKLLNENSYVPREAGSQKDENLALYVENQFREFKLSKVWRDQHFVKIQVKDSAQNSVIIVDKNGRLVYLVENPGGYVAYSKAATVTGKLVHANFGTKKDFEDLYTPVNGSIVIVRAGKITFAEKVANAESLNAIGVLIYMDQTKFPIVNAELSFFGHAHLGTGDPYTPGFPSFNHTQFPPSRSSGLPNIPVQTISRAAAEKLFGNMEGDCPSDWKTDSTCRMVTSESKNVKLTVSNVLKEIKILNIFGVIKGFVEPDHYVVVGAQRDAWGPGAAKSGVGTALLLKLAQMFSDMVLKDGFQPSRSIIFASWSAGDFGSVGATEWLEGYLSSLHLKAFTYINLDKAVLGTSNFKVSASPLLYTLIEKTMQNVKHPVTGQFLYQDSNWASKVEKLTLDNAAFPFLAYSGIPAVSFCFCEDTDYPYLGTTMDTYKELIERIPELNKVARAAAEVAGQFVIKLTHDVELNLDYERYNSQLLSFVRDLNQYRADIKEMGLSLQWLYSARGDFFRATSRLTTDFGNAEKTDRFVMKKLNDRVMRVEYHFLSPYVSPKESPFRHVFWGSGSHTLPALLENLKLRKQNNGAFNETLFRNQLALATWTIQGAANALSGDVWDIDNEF
T1 sequence (P02786 whole entry): as above

B1: Ab21.12-vc-MMAE E2: unmasked parental anti-CD71 antibody drug conjugate (ADC), Ab21.12 with vc-MMAE (conjugate)
VH: QVQLVQSGAEVKKPGASVKMSCKASGYTFTSYWMHWVRQAPGQGLEWIGAIYPGNSETGYAQKFQGRATLTADTSTSTAYMELSSLRSEDTAVYYCTRENWDPGFAFWGQGTLITVSS
VL: DIQMTQSPSSLSASVGDRVTITCSASSSVYYMYWFQQKPGKAPKLWIYSTSNLASGVPSRFSGSGSGTDYTLTISSMQPEDFATYYCQQRRNYPYTFGQGTKLEIK
modifications: vc-MMAE conjugate, DAR ~2
notes: unmasked parental anti-CD71 antibody drug conjugate (ADC), Ab21.12 with vc-MMAE
On to B1, for which the “Avg. Neutrophil Count ± SD (per μL)” value in data set [1] (2 mg/kg IV, one dose, baseline at least 1000 per μL) is reported as 70 per μL. Moreover, the “Body weight loss” value in data set [1] (2 mg/kg IV, one dose, lowest weight after 1st dose) was around 8%; in data set [2] (setting [6]) it was 4%; in data set [2] (2 mg/kg, q3wx2, non-GLP study) it was 6%. Moreover, in data set [1] (non-masked E2 ADC, cynomolgus monkeys (2 mg/kg in Table 5)), the “lethality, time after the first dose” value is listed as at most 8 days. Further, the “Average neutrophil count ± SD” value in data set [2] (setting [6]) came out at 280 ± 42; in data set [2] (2 mg/kg, q3wx2, non-GLP study) it was 70. The Tolerability result in data set [2] (setting [6]) is recorded as “Tolerated”. For the same molecule, in data set [2] (0.6 to 18 mg/kg IV bolus), the test article-related findings entry was “consisted primarily of hematologic toxicity”. Further, the “toxicity (hunched posture, decreased activity, body temperature elevation)” value in data set [2] (6 and 2 mg/kg) is “Severe toxicity”. In addition, the “time to lack of tolerability after a single dose” value in data set [2] (single dose at 2 mpk) was at most 8 days. The mortality result in data set [2] (single dose at >2 mg/kg) is reported as “mortality attributed to secondary infection was observed”.

B2: Ab 21.12-vc-M MAE: anti-CD71 Ab 21.12 conjugated to vc-MMAE; DAR not stated in Table 3B (conjugate)
VH: B1 VH
VL: B1 VL
modifications: vc-MMAE conjugate
B2: the EC50 in data set [3] was 0.291 nM.

B3: Ab21.12: humanized anti-CD71 antibody, VH of SEQ ID NO: 5 and VL of SEQ ID NO: 7 (antibody, V domains shown)
VH: B1 VH
VL: B1 VL
For B3, the EC50 in data set [4] is 1.02 nM. Also, the “Masking Efficiency” value in data set [5] amounted to 1.
